Measured values as given in the supplement of paper PMC12783771.
± gives the standard deviation of the averaged measurements.

B1: library; numbered along this chain (parent)
chain: MNIQIGELAKRTACPVVTIRFYEQEGLLPPPGRSRGNFRLYGEEHVERLQFIRHCRSLDMPLSDVRTLLSYRKRPDQDCGEVNMLLDEHIRQVESRIGALLELKHHLVELREACSGARPAQSCGILQGLSDCVCDTRGTTAHPSD

Legend:
[1] = variants of: B1; test: sfGFP reporter fluorescence (15 h) (µM FITC); higher = higher leak; conditions: library round: Round 0; ligand: none
Description: (§1)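 Cell-free (BL21 Star DE3 extract, PANOx-SP) biosensing: 1 µL Echo-assembled reactions with linear PbrR variant templates (5 nM) and pPbrR-sfGFP reporter, with 1 µM Pb (lead chloride), 30 µM Zn (zinc acetate) or no ligand; endpoint sfGFP fluorescence after 15 h at 30 °C, calibrated as µM FITC. Round 0 library (alanine scan, site saturation, combinatorial) of PbrR from Cupriavidus metallidurans; 2 biological replicates.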

[2] = variants of: B1; test: sfGFP reporter fluorescence (15 h) (µM FITC); higher = stronger transcriptional activation; conditions: library round: Round 0
Description: as §1

Variant	sfGFP reporter fluorescence [1]	sfGFP reporter fluorescence ([2]; ligand: 1 µM Pb)	sfGFP reporter fluorescence ([2]; ligand: 30 µM Zn)
G6H	0.06267 ± 0.00052	0.0603 ± 0.00078	0.0698 ± 0.0029
G6I	0.05846 ± 0.00026	0.0585 ± 0.0023	0.0618 ± 0.0018
G6K	0.0625 ± 0.0013	0.06414 ± 0.00052	0.222 ± 0.0031
G6L	0.0607 ± 0.00078	0.06157 ± 0.00052	0.0682 ± 0.001
G6M	0.0603 ± 0.0013	0.0586 ± 0.001	0.0654 ± 0.0034
G6N	0.0607 ± 0.00078	0.0599 ± 0.0013	0.0773 ± 0.0015
G6P	0.061 ± 0.0013	0.0601 ± 0.0015	0.06084 ± 0.00052
G6Q	0.0592 ± 0.0023	0.05754 ± 0.00052	0.0746 ± 0.0039
G6R	0.0605 ± 0.001	0.0632 ± 0.00078	0.116 ± 0.0039
G6S	0.0608 ± 0.0021	0.06853 ± 0.00052	0.412 ± 0.027
G6T	0.0594 ± 0.0021	0.0608 ± 0.0015	0.0799 ± 0.0047
G6V	0.0618 ± 0.0013	0.0618 ± 0.0013	0.0651 ± 0.0013
G6W	0.061 ± 0.0023	0.06011 ± 0.00052	0.06212 ± 0.00026
G6Y	0.0603 ± 0.0034	0.0608 ± 0.001	0.066
E7A	0.0552 ± 0.0018	0.0671 ± 0.001	1.07 ± 0.011
E7C	0.06121 ± 0.00052	0.0718 ± 0.0021	0.421 ± 0.026
E7D	0.0592 ± 0.0018	0.0823 ± 0.006	1.08 ± 0.044
E7F	0.0601 ± 0.0015	0.0636 ± 0.0013	0.133 ± 0.012
E7G	0.05882 ± 0.00026	0.0755 ± 0.0042	0.626 ± 0.02
E7H	0.06139 ± 0.00026	0.083 ± 0.0013	0.638 ± 0.036
E7I	0.059 ± 0.001	0.0759 ± 0.0031	0.696 ± 0.014
E7K	0.0662 ± 0.00078	0.113 ± 0.0023	1.99 ± 0.1
E7L	0.06175 ± 0.00026	0.0837 ± 0.0013	0.846 ± 0.052

Variant	sfGFP reporter fluorescence [1]	sfGFP reporter fluorescence ([2]; ligand: 1 µM Pb)	sfGFP reporter fluorescence ([2]; ligand: 30 µM Zn)
E7M	0.0616 ± 0.0021	0.0854 ± 0.0021	0.859 ± 0.01
E7N	0.05919 ± 0.00026	0.088 ± 0.0047	0.858 ± 0.081
E7P	0.061 ± 0.0013	0.0709 ± 0.00078	0.3319 ± 0.0018
E7Q	0.0605	0.0891 ± 0.0026	1.18 ± 0.057
E7R	0.06395 ± 0.00026	0.102 ± 0.0054	1.25 ± 0.16
E7S	0.0625 ± 0.0018	0.087 ± 0.0044	0.999 ± 0.052
E7T	0.0625 ± 0.0018	0.0894 ± 0.001	0.904 ± 0.041
E7V	0.06285 ± 0.00026	0.0865	0.961 ± 0.14
E7W	0.0608 ± 0.0015	0.06359 ± 0.00026	0.19 ± 0.0023
E7Y	0.06249 ± 0.00026	0.06542 ± 0.00026	0.2223 ± 0.00026
L8A	0.0575 ± 0.0021	0.0667 ± 0.0042	0.313 ± 0.038
K10A	0.05644 ± 0.00052	0.0687 ± 0.0023	0.567 ± 0.026
R11A	0.0548 ± 0.0023	0.0709 ± 0.0013	0.565 ± 0.025
T12A	0.0564 ± 0.0026	0.0733 ± 0.0015	0.611 ± 0.019
C14A	0.0687 ± 0.0018	0.0726 ± 0.0015	0.317 ± 0.01
P15A	0.0674 ± 0.0042	0.0953 ± 0.0088	0.691 ± 0.02
P15C	0.0656 ± 0.0052	0.0826 ± 0.0018	0.5684 ± 0.001
P15D	0.066 ± 0.0057	0.0689 ± 0.0021	0.286 ± 0.008
P15E	0.0718 ± 0.001	0.088 ± 0.0021	0.4297 ± 0.0023
P15F	0.0662 ± 0.0018	0.0702 ± 0.0049	0.256 ± 0.013
P15G	0.0643 ± 0.0018	0.085 ± 0.0047	0.447 ± 0.028
P15H	0.0667 ± 0.001	0.092 ± 0.0052	0.706 ± 0.044
